Assay results reported in IntAct's records for PubMed 34637754.

B1: Autism susceptibility gene 2 protein (Homo sapiens), Q8WXX7 (parent)
chain: MDGPTRGHGLRKKRRSRSQRDRERRSRGGLGAGAAGGGGAGRTRALSLASSSGSDKEDNGKPPSSAPSRPRPPRRKRRESTSAEEDIIDGFAMTSFVTFEALEKDVALKPQERVEKRQTPLTKKKREALTNGLSFHSKKSRLSHPHHYSSDRENDRNLCQHLGKRKKMPKALRQLKPGQNSCRDSDSESASGESKGFHRSSSRERLSDSSAPSSLGTGYFCDSDSDQEEKASDASSEKLFNTVIVNKDPELGVGTLPEHDSQDAGPIVPKISGLERSQEKSQDCCKEPIFEPVVLKDPCPQVAQPIPQPQTEPQLRAPSPDPDLVQRTEAPPQPPPLSTQPPQGPPEAQLQPAPQPQVQRPPRPQSPTQLLHQNLPPVQAHPSAQSLSQPLSAYNSSSLSLNSLSSSRSSTPAKTQPAPPHISHHPSASPFPLSLPNHSPLHSFTPTLQPPAHSHHPNMFAPPTALPPPPPLTSGSLQVAGHPAGSTYSEQDILRQELNTRFLASQSADRGASLGPPPYLRTEFHQHQHQHQHTHQHTHQHTFTPFPHAIPPTAIMPTPAPPMFDKYPTKVDPFYRHSLFHSYPPAVSGIPPMIPPTGPFGSLQGAFQPKTSNPIDVAARPGTVPHTLLQKDPRLTDPFRPMLRKPGKWCAMHVHIAWQIYHHQQKVKKQMQSDPHKLDFGLKPEFLSRPPGPSLFGAIHHPHDLARPSTLFSAAGAAHPTGTPFGPPPHHSNFLNPAAHLEPFNRPSTFTGLAAVGGNAFGGLGNPSVTPNSMFGHKDGPSVQNFSNPHEPWNRLHRTPPSFPTPPPWLKPGELERSASAAAHDRDRDVDKRDSSVSKDDKERESVEKRHSSHPSPAPVLPVNALGHTRSSTEQIRAHLNTEAREKDKPKERERDHSESRKDLAADEHKAKEGHLPEKDGHGHEGRAAGEEAKQLARVPSPYVRTPVVESARPNSTSSREAEPRKGEPAYENPKKSSEVKVKEERKEDHDLPPEAPQTHRASEPPPPNSSSSVHPGPLASMPMTVGVTGIHPMNSISSLDRTRMMTPFMGISPLPGGERFPYPSFHWDPIRDPLRDPYRELDIHRRDPLGRDFLLRNDPLHRLSTPRLYEADRSFRDREPHDYSHHHHHHHHPLSVDPRREHERGGHLDERERLHMLREDYEHTRLHSVHPASLDGHLPHPSLITPGLPSMHYPRISPTAGNQNGLLNKTPPTAALSAPPPLISTLGGRPVSPRRTTPLSAEIRERPPSHTLKDIEAR
B2: Autism susceptibility gene 2 protein homolog (Mus musculus), A0A087WPF7 (parent)
chain: MDGPTRGHGLRKKRRSRSQRDRERRSRAGLGTGAAGGIGAGRTRAPSLASSSGSDKEDNGKPPSSAPSRPRPPRRKRRESTSAEEDIIDGFAMTSFVTFEALEKDVAVKPQERAEKRQTPLTKKKREALTNGLSFHSKKSRLSHSHHYSSDRENDRNLCQHLGKRKKMPKGLRQLKPGQNSCRDSDSESASGESKGFQRSSSRERLSDSSAPSSLGTGYFCDSDSDQEEKASDASSEKLFNTVLVNKDPELGVGALPEHNQDAGPIVPKISGLERSQEKSQDCCKEPVFEPVVLKDPHPQLPQLPSQAQAEPQLQIPSPGPDLVPRTEAPPQFPPPSTQPAQGPPEAQLQPAPLPQVQQRPPRPQSPSHLLQQTLPPVQSHPSSQSLSQPLSAYNSSSLSLNSLSSRSSTPAKTQPAPPHISHHPSASPFPLSLPNHSPLHSFTPTLQPPAHSHHPNMFAPPTALPPPPPLTSGSLQVPGHPAGSTYSEQDILRQELNTRFLASQSADRGASLGPPPYLRTEFHQHQHQHQHTHQHTHQHTFTPFPHAIPPTAIMPTPAPPMFDKYPTKVDPFYRHSLFHSYPPAVSGIPPMIPPTGPFGSLQGAFQPKTSNPIDVAARPGTVPHTLLQKDPRLTDPFRPMLRKPGKWCAMHVHIAWQIYHHQQKVKKQMQSDPHKLDFGLKPEFLSRPPGPSLFGAIHHPHDLARPSTLFSAAGAAHPTGTPFGPPPHHSNFLNPAAHLEPFNRPSTFTGLAAVGGNAFGGLGNPSVTPNSVFGHKDSPSVQNFSNPHEPWNRLHRTPPSFPTPPPWLKPGELERSASAAAHDRDRDVDKRDSSVSKDDKERESVEKRHPSHPSPAPPVPVSALGHNRSSTDPTTRGHLNTEAREKDKPKEKERDHSGSRKDLTTEEHKAKESHLPERDGHSHEGRAAGEEPKQLSRVPSPYVRTPGVDSTRPNSTSSREAEPRKGEPAYENPKKNAEVKVKEERKEDHDLPTEAPQAHRTSEAPPPSSSASASVHPGPLASMPMTVGVTGIHAMNSIGSLDRTRMVTPFMGLSPIPGGERFPYPSFHWDPMRDPLRDPYRDLDMHRRDPLGRDFLLRNDPLHRLSTPRLYEADRSFRDREPHDYSHHHHHHHHPLAVDPRREHERGGHLDERERLHVLREDYEHPRLHPVHPASLDGHLPHPSLLTPGLPSMHYPRISPTAGHQNGLLNKTPPTAALSAPPPLISTLGGRPGSPRRTTPLSAEIRERPPSHTLKDIEAR

Tests used:
[1] = variants of: B1; conditions: with ep300_human EP300, Q09472
[2] = variants of: B1; conditions: with ring2_human RNF2, Q99496
[3] = variants of: B1; conditions: with ep300_human EP300, Q09472; remark: listed apart in the source
[4] = variants of: B2; conditions: with ep300_mouse Ep300, B2RWS6
[5] = variants of: B2; conditions: with ring2_mouse Rnf2, Q9CQJ4
[6] = variants of: B2; conditions: with nf2l1_mouse Nfe2l1, Q61985

ep300_human EP300, Q09472, sequence (Q09472 whole entry): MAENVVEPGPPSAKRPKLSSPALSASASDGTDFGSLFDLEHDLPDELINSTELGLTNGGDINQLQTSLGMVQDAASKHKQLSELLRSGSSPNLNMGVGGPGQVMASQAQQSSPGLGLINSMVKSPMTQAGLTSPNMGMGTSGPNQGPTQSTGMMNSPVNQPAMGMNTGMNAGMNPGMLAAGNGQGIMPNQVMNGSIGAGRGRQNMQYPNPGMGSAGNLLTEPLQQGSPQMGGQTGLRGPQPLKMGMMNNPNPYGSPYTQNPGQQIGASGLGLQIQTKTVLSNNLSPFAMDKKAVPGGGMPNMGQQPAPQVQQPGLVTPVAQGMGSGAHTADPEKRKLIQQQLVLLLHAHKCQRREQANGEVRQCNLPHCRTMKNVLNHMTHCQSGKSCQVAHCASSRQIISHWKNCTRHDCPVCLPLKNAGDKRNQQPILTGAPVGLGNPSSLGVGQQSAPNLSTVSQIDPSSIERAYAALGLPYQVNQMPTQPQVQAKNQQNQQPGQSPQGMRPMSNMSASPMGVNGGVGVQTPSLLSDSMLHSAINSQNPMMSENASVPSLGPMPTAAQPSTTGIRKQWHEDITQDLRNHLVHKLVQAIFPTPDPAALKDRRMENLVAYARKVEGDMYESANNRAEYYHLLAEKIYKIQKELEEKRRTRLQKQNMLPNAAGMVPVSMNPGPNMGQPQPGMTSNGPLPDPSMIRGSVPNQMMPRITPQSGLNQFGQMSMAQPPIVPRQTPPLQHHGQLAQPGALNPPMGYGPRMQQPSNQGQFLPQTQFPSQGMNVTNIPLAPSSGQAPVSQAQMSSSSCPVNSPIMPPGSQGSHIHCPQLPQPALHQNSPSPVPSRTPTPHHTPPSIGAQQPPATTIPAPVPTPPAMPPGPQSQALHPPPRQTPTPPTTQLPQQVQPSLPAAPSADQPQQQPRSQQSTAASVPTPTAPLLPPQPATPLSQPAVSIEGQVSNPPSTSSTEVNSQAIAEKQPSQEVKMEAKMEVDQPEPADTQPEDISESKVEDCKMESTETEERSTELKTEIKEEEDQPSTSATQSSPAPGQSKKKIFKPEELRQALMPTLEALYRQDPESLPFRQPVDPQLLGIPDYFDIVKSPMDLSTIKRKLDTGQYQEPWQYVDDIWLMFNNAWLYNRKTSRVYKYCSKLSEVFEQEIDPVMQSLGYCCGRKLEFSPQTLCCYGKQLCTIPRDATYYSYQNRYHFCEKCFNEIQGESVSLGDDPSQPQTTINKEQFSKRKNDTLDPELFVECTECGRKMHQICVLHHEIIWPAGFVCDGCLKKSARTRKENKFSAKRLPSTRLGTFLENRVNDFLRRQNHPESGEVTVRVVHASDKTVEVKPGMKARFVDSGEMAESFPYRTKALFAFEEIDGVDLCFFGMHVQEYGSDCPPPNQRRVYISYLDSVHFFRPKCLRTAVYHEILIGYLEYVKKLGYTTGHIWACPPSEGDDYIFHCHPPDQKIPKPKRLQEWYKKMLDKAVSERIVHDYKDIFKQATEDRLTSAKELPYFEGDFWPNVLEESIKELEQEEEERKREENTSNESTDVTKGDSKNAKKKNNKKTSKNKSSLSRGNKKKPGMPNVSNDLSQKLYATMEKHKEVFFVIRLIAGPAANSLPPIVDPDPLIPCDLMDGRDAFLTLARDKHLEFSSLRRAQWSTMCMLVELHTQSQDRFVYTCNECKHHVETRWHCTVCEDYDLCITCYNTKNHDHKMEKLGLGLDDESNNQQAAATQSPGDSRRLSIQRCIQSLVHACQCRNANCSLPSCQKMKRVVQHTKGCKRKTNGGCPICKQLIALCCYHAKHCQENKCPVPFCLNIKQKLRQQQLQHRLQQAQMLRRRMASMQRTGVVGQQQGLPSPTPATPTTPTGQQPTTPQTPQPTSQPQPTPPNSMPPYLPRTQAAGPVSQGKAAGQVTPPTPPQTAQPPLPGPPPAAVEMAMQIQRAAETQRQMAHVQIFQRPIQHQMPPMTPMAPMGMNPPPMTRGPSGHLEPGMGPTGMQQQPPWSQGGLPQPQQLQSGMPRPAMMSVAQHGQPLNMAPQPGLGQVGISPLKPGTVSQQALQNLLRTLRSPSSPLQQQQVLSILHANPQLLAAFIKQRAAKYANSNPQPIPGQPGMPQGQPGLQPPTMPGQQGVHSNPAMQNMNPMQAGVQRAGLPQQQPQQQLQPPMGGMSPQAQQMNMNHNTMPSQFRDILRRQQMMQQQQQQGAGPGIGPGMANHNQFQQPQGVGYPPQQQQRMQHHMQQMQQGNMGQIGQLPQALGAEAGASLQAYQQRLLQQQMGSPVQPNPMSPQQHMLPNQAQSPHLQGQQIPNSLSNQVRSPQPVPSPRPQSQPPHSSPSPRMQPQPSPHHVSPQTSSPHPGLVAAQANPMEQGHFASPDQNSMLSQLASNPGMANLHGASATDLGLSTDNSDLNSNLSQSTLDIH
ring2_human RNF2, Q99496, sequence (Q99496 whole entry): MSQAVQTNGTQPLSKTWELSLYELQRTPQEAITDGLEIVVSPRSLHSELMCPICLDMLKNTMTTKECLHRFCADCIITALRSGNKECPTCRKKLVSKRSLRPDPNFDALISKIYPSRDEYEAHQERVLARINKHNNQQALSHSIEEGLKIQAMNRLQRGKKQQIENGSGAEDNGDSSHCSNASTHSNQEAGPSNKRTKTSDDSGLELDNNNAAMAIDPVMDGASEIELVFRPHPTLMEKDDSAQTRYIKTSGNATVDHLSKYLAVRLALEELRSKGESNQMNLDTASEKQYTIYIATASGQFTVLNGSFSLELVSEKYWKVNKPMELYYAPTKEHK
ep300_mouse Ep300, B2RWS6, sequence (B2RWS6 whole entry): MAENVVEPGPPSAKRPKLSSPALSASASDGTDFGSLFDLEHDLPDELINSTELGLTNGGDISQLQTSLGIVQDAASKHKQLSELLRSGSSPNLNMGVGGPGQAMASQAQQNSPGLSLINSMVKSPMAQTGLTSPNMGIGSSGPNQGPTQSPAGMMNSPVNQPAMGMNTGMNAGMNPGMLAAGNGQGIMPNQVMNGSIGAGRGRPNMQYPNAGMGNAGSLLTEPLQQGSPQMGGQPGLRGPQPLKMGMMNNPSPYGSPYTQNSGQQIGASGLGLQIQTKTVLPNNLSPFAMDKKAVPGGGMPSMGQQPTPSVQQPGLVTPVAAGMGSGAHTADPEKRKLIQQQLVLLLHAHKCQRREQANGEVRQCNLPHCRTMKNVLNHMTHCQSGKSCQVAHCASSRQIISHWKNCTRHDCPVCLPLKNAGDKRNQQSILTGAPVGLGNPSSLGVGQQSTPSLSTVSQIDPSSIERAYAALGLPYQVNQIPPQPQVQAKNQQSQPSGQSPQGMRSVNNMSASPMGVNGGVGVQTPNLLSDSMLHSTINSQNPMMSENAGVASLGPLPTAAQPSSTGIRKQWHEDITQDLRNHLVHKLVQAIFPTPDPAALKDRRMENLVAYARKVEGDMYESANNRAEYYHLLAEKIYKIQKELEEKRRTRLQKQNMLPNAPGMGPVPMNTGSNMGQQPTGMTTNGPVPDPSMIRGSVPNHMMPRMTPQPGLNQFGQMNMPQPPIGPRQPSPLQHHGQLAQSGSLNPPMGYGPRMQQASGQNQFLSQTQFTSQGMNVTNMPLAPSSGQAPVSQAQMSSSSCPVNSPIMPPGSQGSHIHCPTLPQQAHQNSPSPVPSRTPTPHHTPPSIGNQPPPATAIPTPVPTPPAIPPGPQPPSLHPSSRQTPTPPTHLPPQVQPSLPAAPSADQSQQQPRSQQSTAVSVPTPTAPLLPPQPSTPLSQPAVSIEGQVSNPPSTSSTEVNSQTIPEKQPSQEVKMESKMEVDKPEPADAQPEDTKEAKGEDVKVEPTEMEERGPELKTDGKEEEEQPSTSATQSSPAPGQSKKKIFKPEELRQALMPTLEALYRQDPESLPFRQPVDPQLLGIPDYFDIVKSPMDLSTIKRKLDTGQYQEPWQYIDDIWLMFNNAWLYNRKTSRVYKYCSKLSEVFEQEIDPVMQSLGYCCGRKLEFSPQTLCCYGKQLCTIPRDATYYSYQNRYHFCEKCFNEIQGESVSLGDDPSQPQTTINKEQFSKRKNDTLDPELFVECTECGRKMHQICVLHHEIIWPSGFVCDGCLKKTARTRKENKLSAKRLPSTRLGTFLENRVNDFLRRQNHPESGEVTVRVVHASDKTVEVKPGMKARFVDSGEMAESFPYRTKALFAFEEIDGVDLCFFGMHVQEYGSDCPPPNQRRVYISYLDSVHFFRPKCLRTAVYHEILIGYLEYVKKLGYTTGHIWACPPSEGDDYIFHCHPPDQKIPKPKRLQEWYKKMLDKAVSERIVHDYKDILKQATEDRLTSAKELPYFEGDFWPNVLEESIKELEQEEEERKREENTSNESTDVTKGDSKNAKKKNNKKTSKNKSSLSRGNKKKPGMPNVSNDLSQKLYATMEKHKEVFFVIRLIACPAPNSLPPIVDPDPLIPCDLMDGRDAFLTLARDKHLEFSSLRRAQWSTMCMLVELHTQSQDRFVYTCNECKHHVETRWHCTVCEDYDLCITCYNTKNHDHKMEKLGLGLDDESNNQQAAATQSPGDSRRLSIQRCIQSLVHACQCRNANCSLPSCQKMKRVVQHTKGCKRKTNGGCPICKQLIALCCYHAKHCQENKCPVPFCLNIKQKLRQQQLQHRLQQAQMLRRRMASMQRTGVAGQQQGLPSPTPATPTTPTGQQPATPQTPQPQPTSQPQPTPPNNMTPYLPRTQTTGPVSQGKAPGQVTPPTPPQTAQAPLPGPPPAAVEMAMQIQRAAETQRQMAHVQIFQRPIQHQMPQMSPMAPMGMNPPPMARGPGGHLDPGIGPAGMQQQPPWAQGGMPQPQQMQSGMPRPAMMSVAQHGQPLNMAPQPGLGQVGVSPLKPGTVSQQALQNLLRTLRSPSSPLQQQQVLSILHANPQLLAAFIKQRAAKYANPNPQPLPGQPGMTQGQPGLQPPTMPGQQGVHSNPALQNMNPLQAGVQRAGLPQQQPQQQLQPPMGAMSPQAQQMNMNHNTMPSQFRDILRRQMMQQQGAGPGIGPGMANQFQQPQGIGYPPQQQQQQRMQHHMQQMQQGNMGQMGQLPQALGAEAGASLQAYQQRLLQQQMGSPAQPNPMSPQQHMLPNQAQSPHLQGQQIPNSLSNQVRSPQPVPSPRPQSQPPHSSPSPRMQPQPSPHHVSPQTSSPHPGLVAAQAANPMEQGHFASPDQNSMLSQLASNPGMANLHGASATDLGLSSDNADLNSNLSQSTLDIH

| effect of a mutation on the interaction [1] | effect of a mutation on the interaction [2] | effect of a mutation on the interaction [3] | effect of a mutation on the interaction [4] | effect of a mutation on the interaction [5] | effect of a mutation on the interaction [6] | Variant |
| --- | --- | --- | --- | --- | --- | --- |
| disrupting interaction | with no effect |  |  |  |  | T534P |
| decreasing interaction | increasing interaction | with no effect |  |  |  | P517L |
|  |  |  | disrupting interaction | with no effect | with no effect | T533P |
